# Assays:
# [1] = test system: HeLa Kyoto; assay: solubility in G1/S (NP-40 vs SDS abundance) (log2 ratio); higher = more soluble; details: cell cycle stage: G1/S
# [2] = test system: HeLa Kyoto; assay: solubility change mitosis vs G1/S (difference of NP-40 vs SDS log2 ratios) (log2 ratio difference); higher = more soluble in mitosis
# [3] = test system: HeLa Kyoto; assay: thermal stability score vs G1/S (z-score of summed log2 fold changes over temperatures); higher = more thermally stable than in G1/S
# [4] = test system: HeLa Kyoto; assay: melting temperature (median over replicates), in situ; higher = more thermally stable
# [5] = cell cycle stage: early G1 (4.5 h after nocodazole release)
# 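Wherever melting temperature (median over replicates), in situ is given: HeLa Kyoto cells synchronized by double thymidine or nocodazole block, proteins quantified by TMT10plex mass spectrometry, three independent biological replicates.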
# 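Wherever solubility change mitosis vs G1/S (difference of NP-40 vs SDS log2 ratios) is given: synchronized HeLa Kyoto cells (double thymidine block for G1/S, nocodazole release for mitosis), protein amounts in NP-40 versus SDS lysates quantified by mass spectrometry, three biological replicates.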
# 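Wherever solubility in G1/S (NP-40 vs SDS abundance) is given: HeLa Kyoto cells arrested at G1/S by double thymidine block, proteins quantified by TMT10plex mass spectrometry in mild NP-40 versus SDS extracts, three biological replicates.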
# 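Wherever thermal stability score vs G1/S (z-score of summed log2 fold changes over temperatures) is given: synchronized HeLa Kyoto cells, proteins quantified by TMT10plex mass spectrometry, three biological replicates, mitosis taken 0.5 h after nocodazole release, G1/S directly after double thymidine block.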
# TGOLN2, sequence (chain, as listed by the source): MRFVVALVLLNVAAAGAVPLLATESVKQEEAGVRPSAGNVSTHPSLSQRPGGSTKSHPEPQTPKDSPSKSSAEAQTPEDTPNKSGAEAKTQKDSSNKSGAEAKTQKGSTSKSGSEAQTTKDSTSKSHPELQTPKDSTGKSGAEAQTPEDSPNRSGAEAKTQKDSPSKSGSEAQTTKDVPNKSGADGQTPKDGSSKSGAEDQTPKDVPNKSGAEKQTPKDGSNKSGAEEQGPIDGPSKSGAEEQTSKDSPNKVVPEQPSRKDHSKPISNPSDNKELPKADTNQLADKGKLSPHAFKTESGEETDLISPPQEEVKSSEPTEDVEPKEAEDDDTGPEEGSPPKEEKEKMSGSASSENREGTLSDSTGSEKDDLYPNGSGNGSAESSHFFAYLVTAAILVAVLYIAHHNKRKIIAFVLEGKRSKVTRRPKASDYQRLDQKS
# ZNF593, sequence (chain, as listed by the source): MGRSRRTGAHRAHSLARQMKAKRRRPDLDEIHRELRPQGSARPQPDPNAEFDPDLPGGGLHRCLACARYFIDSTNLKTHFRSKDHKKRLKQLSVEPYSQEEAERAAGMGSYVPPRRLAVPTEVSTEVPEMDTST
# NFYA, sequence (chain, as listed by the source): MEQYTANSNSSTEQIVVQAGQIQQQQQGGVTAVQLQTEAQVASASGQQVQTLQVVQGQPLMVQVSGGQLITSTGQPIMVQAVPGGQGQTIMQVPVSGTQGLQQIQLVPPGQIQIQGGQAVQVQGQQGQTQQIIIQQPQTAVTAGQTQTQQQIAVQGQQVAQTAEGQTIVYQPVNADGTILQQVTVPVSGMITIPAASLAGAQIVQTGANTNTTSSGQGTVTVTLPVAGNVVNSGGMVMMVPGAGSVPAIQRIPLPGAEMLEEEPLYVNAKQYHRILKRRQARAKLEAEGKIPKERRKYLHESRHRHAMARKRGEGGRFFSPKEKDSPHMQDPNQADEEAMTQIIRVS
# UNC13B, sequence (chain, as listed by the source): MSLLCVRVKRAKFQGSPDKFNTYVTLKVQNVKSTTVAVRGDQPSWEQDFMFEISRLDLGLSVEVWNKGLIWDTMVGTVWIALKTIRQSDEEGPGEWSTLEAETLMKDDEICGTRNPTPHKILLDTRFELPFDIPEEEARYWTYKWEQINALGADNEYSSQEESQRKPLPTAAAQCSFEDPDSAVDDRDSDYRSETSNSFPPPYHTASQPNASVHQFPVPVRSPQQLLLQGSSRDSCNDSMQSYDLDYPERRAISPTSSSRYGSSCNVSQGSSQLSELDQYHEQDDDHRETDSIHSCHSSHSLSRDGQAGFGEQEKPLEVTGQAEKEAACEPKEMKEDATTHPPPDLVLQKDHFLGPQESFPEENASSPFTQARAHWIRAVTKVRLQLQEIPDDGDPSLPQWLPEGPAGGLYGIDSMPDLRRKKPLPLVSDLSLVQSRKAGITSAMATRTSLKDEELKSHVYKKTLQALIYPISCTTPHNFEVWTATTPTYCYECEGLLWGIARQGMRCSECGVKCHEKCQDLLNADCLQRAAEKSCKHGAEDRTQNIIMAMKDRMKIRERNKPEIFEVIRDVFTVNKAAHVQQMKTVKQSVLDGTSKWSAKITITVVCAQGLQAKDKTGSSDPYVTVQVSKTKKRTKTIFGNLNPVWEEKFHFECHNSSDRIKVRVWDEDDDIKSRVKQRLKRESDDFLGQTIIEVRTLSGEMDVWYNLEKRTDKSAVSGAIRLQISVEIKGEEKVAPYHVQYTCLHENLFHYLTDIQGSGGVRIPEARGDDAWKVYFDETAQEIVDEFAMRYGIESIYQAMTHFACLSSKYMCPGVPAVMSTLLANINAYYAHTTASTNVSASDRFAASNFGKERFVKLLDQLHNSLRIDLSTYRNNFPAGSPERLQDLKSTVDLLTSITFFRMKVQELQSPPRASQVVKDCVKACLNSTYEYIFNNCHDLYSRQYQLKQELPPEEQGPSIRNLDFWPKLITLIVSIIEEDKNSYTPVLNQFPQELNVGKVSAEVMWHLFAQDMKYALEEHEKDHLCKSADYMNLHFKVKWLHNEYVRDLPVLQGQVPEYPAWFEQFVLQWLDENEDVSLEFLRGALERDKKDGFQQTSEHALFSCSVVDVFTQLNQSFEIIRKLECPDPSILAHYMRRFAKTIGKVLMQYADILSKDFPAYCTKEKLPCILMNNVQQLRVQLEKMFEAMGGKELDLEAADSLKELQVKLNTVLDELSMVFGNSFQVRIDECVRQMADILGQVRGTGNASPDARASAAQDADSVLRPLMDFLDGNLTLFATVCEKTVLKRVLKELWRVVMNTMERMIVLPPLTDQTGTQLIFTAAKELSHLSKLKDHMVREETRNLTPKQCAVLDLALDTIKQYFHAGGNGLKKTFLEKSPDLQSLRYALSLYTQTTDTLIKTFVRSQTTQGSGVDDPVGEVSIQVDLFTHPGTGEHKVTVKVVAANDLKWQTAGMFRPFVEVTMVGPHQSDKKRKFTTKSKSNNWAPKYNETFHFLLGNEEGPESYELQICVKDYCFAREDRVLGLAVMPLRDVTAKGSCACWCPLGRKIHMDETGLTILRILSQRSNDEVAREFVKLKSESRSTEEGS
# WNK2, sequence (chain, as listed by the source): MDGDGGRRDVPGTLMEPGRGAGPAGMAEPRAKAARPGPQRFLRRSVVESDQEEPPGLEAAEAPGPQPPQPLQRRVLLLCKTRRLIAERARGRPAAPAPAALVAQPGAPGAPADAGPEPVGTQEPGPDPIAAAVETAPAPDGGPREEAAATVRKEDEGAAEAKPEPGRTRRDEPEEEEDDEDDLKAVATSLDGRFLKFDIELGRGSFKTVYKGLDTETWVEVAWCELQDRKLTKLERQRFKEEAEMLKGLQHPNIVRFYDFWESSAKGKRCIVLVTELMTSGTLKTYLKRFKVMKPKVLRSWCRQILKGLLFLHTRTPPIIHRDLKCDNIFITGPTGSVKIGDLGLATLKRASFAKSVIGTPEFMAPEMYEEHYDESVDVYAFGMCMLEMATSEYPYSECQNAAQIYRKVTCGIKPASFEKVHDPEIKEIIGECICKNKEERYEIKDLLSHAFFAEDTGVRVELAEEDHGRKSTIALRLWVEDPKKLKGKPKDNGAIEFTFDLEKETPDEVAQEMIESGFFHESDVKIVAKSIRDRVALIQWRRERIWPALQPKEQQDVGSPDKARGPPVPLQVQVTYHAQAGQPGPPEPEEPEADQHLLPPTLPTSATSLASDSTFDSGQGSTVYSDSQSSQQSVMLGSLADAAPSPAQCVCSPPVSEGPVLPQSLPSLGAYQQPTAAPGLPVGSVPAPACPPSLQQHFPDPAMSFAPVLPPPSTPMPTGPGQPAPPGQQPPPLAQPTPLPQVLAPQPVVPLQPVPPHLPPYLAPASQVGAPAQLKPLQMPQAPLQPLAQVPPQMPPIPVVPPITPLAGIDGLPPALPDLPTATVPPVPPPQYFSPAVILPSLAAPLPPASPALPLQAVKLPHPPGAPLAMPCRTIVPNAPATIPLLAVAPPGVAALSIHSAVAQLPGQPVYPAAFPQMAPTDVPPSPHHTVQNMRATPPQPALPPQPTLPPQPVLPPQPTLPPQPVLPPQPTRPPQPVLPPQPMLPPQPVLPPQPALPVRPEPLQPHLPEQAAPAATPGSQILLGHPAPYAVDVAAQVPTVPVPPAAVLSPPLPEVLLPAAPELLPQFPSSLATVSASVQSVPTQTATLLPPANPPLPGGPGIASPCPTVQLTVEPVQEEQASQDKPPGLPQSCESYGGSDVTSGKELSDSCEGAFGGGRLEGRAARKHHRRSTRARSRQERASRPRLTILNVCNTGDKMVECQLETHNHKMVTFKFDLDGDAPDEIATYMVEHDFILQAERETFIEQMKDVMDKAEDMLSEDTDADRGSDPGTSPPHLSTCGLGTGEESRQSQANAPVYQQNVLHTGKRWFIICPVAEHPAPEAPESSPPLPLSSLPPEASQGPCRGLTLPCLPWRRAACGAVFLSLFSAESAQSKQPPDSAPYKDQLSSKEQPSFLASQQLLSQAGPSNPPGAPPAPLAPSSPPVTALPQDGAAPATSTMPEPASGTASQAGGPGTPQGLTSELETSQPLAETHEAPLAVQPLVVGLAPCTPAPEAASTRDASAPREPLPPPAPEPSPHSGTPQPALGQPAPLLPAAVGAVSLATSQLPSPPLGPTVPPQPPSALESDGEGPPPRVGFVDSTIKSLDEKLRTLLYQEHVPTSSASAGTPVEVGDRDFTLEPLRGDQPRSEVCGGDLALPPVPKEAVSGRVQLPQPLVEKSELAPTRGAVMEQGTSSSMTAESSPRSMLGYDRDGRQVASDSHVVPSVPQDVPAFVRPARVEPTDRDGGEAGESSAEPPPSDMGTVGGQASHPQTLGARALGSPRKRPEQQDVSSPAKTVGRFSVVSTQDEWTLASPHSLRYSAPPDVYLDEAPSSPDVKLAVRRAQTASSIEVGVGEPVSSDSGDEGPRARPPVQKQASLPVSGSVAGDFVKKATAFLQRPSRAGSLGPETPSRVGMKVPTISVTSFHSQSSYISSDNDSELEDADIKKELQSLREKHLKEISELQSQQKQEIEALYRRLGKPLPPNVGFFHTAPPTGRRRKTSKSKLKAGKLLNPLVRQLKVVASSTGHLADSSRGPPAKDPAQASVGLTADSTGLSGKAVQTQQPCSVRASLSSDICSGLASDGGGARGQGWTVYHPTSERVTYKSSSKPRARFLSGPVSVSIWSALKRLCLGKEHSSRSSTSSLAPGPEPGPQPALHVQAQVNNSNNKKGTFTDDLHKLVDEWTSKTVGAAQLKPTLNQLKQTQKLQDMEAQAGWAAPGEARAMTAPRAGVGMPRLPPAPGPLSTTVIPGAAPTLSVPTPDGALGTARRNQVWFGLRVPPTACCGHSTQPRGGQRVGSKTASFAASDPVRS
Substance,solubility in G1/S (log2) [1],solubility change mitosis (log2) [2],"thermal stability score [3, 5]",thermal stability score ([3]; cell cycle stage: mitosis),melting temperature ([4]; cell cycle stage: G1/S),melting temperature ([4]; cell cycle stage: mitosis)
ABCA2,0.0925,-0.105,0.174,-0.253,,
APOBEC3B,-0.745,0.177,0.584,1.24,,
CELSR1,-0.413,-0.0398,-1.99,-1.59,,
EML1,-0.0717,-0.126,0.361,0.0361,,
KIAA0430,-0.0573,0.0372,-0.446,-0.799,,
MAARAVLDEFTAPAEKAELLEQSRGRIEGLFGVSLAVLGALGAEEPLPARIWLQLCGAQEAVHSAKEYIKGICEPELEERECYPKDMHCIFVGAESLFLKSLIQDTCADLCILDIGLLGIRGSAEAVVMARSHIQQFVKLFENKENLPSSQKESEVKREFKQFVEAHADNYTMDLLILPTSLKKELLTLTQGEENLFETGDDEVIEMRDSQQTEFTQNAATGLNISRDETVLQEEARNKAGTPVSELTKQMDTVLSSSPDVLFDPINGLTPDEEALSNERICQKRRFSDSEERHTKKQFSLENVQEGEILHDAKTLAGNVIADLSDSSADSENLSPDIKETTEEMEYNILVNFFKTMGYSQEIVEKVIKVYGPSTEPLLLLEEIEKENKRFQEDREFSAGTVYPETNKTKNKGVYSSTNELTTDSTPKKTQAHTQQNMVEKFSQLPFKVEAKPCTSNCRINTFRTVPIEQKHEVWGSNQNYICNTDPETDGLSPSVASPSPKEVNFVSRGASSHQPRVPLFPENGLHQQPEPLLPNNMKSACEKRLGCCSSPHSKPNCSTLSPPMPLPQLLPSVTDARSAGPSDHIDSSVTGVQRFRDTLKIPYKLELKNEPGRTDLKHIVIDGSNVAITHGLKKFFSCRGIAIAVEYFWKLGNRNITVFVPQWRTRRDPNVTEQHFLTQLQELGILSLTPARMVFGERIASHDDRFLLHLADKTGGIIVTNDNFREFVNESVSWREIITKRLLQYTFVGDIFMVPDDPLGRSGPRLEEFLQKEVCLRDMQPLLSALPNVGMFDPSFRVPGTQAASTSHQPPTRIQGAPSSHWLPQQPHFPLLPALPSLQQNLPMPAQRSSAETNELREALLKIFPDSEQRLKIDQILVAHPYMKDLNALSAMVLD [N4BP1],0.0767,-0.0226,1.68,2.82,,
MAASRLELNLVRLLSRCEAMAAEKRDPDEWRLEKYVGALEDMLQALKVHASKPASEVINEYSWKVDFLKGMLQAEKLTSSSEKALANQFLAPGRVPTTARERVPATKTVHLQSRARYTSEMRSELLGTDSAEPEMDVRKRTGVAGSQPVSEKQLAAELDLVLQRHQNLQEKLAEEMLGLARSLKTNTLAAQSVIKKDNQTLSHSLKMADQNLEKLKTESERLEQHTQKSVNWLLWAMLIIVCFIFISMILFIRIMPKLK [USE1],0.00595,-0.0501,0.334,0.48,,
MAEDWLDCPALGPGWKRREVFRKSGATCGRSDTYYQSPTGDRIRSKVELTRYLGPACDLTLFDFKQGILCYPAPKAHPVAVASKKRKKPSRPAKTRKRQVGPQSGEVRKEAPRDETKADTDTAPASFPAPGCCENCGISFSGDGTQRQRLKTLCKDCRAQRIAFNREQRMFKRVGCGECAACQVTEDCGACSTCLLQLPHDVASGLFCKCERRRCLRIVERSRGCGVCRGCQTQEDCGHCPICLRPPRPGLRRQWKCVQRRCLRGKHARRKGGCDSKMAARRRPGAQPLPPPPPSQSPEPTEPHPRALAPSPPAEFIYYCVDEDELQPYTNRRQNRKCGACAACLRRMDCGRCDFCCDKPKFGGSNQKRQKCRWRQCLQFAMKRLLPSVWSESEDGAGSPPPYRRRKRPSSARRHHLGPTLKPTLATRTAQPDHTQAPTKQEAGGGFVLPPPGTDLVFLREGASSPVQVPGPVAASTEALLQEAQCSGLSWVVALPQVKQEKADTQDEWTPGTAVLTSPVLVPGCPSKAVDPGLPSVKQEPPDPEEDKEENKDDSASKLAPEEEAGGAGTPVITEIFSLGGTRFRDTAVWLPRSKDLKKPGARKQ [MBD1],-0.475,0.37,-0.407,-0.0664,,
MAKQLQARRLDGIDYNPWVEFVKLASEHDVVNLGQGFPDFPPPDFAVEAFQHAVSGDFMLNQYTKTFGYPPLTKILASFFGELLGQEIDPLRNVLVTVGGYGALFTAFQALVDEGDEVIIIEPFFDCYEPMTMMAGGRPVFVSLKPGPIQNGELGSSSNWQLDPMELAGKFTSRTKALVLNTPNNPLGKVFSREELELVASLCQQHDVVCITDEVYQWMVYDGHQHISIASLPGMWERTLTIGSAGKTFSATGWKVGWVLGPDHIMKHLRTVHQNSVFHCPTQSQAAVAESFEREQLLFRQPSSYFVQFPQAMQRCRDHMIRSLQSVGLKPIIPQGSYFLITDISDFKRKMPDLPGAVDEPYDRRFVKWMIKNKGLVAIPVSIFYSVPHQKHFDHYIRFCFVKDEATLQAMDEKLRKWKVEL [CCBL1],0.0856,-0.211,0.0443,-0.361,,
MARPGMERWRDRLALVTGASGGIGAAVARALVQQGLKVVGCARTVGNIEELAAECKSAGYPGTLIPYRCDLSNEEDILSMFSAIRSQHSGVDICINNAGLARPDTLLSGSTSGWKDMFNVNVLALSICTREAYQSMKERNVDDGHIININSMSGHRVLPLSVTHFYSATKYAVTALTEGLRQELREAQTHIRATCISPGVVETQFAFKLHDKDPEKAAATYEQMKCLKPEDVAEAVIYVLSTPAHIQIGDIQMRPTEQVT [DHRS11],0.514,-0.00389,-0.426,-1.39,,
MARTTSQLYDAVPIQSSVVLCSCPSPSMVRTQTESSTPPGIPGGSRQGPAMDGTAAEPRPGAGSLQHAQPPPQPRKKRPEDFKFGKILGEGSFSTVVLARELATSREYAIKILEKRHIIKENKVPYVTRERDVMSRLDHPFFVKLYFTFQDDEKLYFGLSYAKNGELLKYIRKIGSFDETCTRFYTAEIVSALEYLHGKGIIHRDLKPENILLNEDMHIQITDFGTAKVLSPESKQARANSFVGTAQYVSPELLTEKSACKSSDLWALGCIIYQLVAGLPPFRAGNEYLIFQKIIKLEYDFPEKFFPKARDLVEKLLVLDATKRLGCEEMEGYGPLKAHPFFESVTWENLHQQTPPKLTAYLPAMSEDDEDCYGNYDNLLSQFGCMQVSSSSSSHSLSASDTGLPQRSGSNIEQYIHDLDSNSFELDLQFSEDEKRLLLEKQAGGNPWHQFVENNLILKMGPVDKRKGLFARRRQLLLTEGPHLYYVDPVNKVLKGEIPWSQELRPEAKNFKTFFVHTPNRTYYLMDPSGNAHKWCRKIQEVWRQRYQSHPDAAVQ [PDPK1],0.156,-0.222,1.38,0.777,,
MSTASSSSSSSSSQTPHPPSQRMRRSAAGSPPAVAAAGSGNGAGGGGGVGCAPAAGAGRLLQPIRATVPYQLLRGSQHSPTRPPVAAAAASLGSLPGPGAARGPSPSSPTPPAAAAPAEQAPRAKGRPRRSPESHRRSSSPERRSPGSPVCRADKAKSQQVRTSSTIRRTSSLDTITGPYLTGQWPRDPHVHYPSCMKDKATQTPSCWAEEGAEKRSHQRSASWGSADQLKEQIAKLRQQLQRSKQSSRHSKEKDRQSPLHGNHITISHTQATGSRSVPMPLSNISVPKSSVSRVPCNVEGISPELEKVFIKENNGKEEVSKPLDIPDGRRAPLPAHYRSSSTRSIDTQTPSVQERSSSCSSHSPCVSPFCPPESQDGSPCSTEDLLYDRDKDSGSSSPLPKYASSPKPNNSYMFKREPPEGCERVKVFEEMASRQPISAPLFSCPDKNKVNFIPTGSAFCPVKLLGPLLPASDLMLKNSPNSGQSSALATLTVEQLSSRVSFTSLSDDTSTAGSMEASVQQPSQQQQLLQELQGEDHISAQNYVII [GLCCI1],0.4,-0.0403,,,53.7 °C,54.4 °C
MSVFGKLFGAGGGKAGKGGPTPQEAIQRLRDTEEMLSKKQEFLEKKIEQELTAAKKHGTKNKRAALQALKRKKRYEKQLAQIDGTLSTIEFQREALENANTNTEVLKNMGYAAKAMKAAHDNMDIDKVDELMQDIADQQELAEEISTAISKPVGFGEEFDEDELMAELEELEQEELDKNLLEISGPETVPLPNVPSIALPSKPAKKKEEEDDDMKELENWAGSM [CHMP4B],0.507,0.775,,,55 °C,52.5 °C
MTSPEIASLSWGQMKVKGSNTTYKDCKVWPGGSRTWDWRETGTEHSPGVQPADVKEVVEKGVQTLVIGRGMSEALKVPSSTVEYLKKHGIDVRVLQTEQAVKEYNALVAQGVRVGGVFHSTC [AAMDC],0.355,0.0391,,,53.4 °C,52.5 °C
MTTAARPTFEPARGGRGKGEGDLSQLSKQYSSRDLPSHTKIKYRQTTQDAPEEVRNRDFRRELEERERAAAREKNRDRPTREHTTSSSVSKKPRLDQIPAANLDADDPLTDEEDEDFEEESDDDDTAALLAELEKIKKERAEEQARKEQEQKAEEERIRMENILSGNPLLNLTGPSQPQANFKVKRRWDDDVVFKNCAKGVDDQKKDKRFVNDTLRSEFHKKFMEKYIK [CWC15],0.0823,0.681,,,55.4 °C,55.1 °C
MWPPCGTLRTLALARSRGARACSGDGGVSYTQGQSPEPRTREYFYYVDHQGQLFLDDSKMKNFITCFKDPQFLVTFFSRLRPNRSGRYEAAFPFLSPCGRERNFLRCEDRPVVFTHLLTADHGPPRLSYCGGGEALAVPFEPARLLPLAANGRLYHPAPERAGGVGLVRSALAFELSACFEYGPGAPALPSHVRWQGRRLALTMDLAPLLLAARSP [C8ORF82],0.265,0.0375,,,52.4 °C,54.3 °C
MYQDYPGNFDTSSRGSSGSPAHAESYSSGGGGQQKFRVDMPGSGSAFIPTINAITTSQDLQWMVQPTVITSMSNPYPRSHPYSPLPGLASVPGHMALPRPGVIKTIGTTVGRRRRDEQLSPEEEEKRRIRRERNKLAAAKCRNRRRELTEKLQAETEELEEEKSGLQKEIAELQKEKEKLEFMLVAHGPVCKISPEERRSPPAPGLQPMRSGGGSVGAVVVKQEPLEEDSPSSSSAGLDKAQRSVIKPISIAGGFYGEEPLHTPIVVTSTPAVTPGTSNLVFTYPSVLEQESPASPSESCSKAHRRSSSSGDQSSDSLNSPTLLAL [FOSL2],0.191,0.106,,,53.9 °C,55.1 °C
NBEAL2,-0.103,-0.0719,,,52 °C,
NFYA,-0.0285,-0.0439,,,58 °C,58.1 °C
RPL22L1,-0.564,0.209,,,53.8 °C,52 °C
SRCAP,-0.24,0.0318,,,48.8 °C,50.3 °C
TGOLN2,-0.315,0.881,,,59.5 °C,53.9 °C
TOPBP1,-0.153,-0.0346,,,46.7 °C,49.1 °C
UNC13B,-0.113,-0.114,,,50.3 °C,49.4 °C
WNK2,0.2,-0.0197,,,,52.6 °C
ZNF593,-0.278,1.09,,,57.9 °C,51.7 °C

# Source: the supplement of paper PMC5998384
